Values belong to the binder of their own block, whether it stands above or below them.
Columns and labels:
Test in all cases: holdup assay
Set-up in all cases: key: below the threshold = too weak to quantify, mostly under pKd 3.1 to 4
Details in all cases: plain residues with an end cap or a label only (N-terminal biotin on a linker: ado-ado)
[1] = molecular target: T1, ARHGAP21, Q5T5U3
T1 sequence (Q5T5U3 45-169, limits assumed, looked up): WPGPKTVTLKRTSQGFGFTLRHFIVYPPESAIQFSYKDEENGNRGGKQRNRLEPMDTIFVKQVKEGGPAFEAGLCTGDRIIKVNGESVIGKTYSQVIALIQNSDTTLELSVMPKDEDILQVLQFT

[2] = molecular target: DLG4_1, P78352
Sequence of DLG4_1, P78352 (P78352 62-152): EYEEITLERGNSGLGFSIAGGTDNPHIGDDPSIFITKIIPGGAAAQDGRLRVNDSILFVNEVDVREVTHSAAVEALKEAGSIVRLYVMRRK

[3] = molecular target: T2, FRMPD1, Q5SYB0
T2 sequence (Q5SYB0 52-145, limits assumed, looked up): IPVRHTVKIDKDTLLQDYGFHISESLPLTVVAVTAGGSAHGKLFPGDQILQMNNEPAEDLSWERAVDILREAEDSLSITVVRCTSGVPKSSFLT

[4] = molecular target: FRMPD4, Q14CM0
Sequence of FRMPD4, Q14CM0 (Q14CM0 67-160): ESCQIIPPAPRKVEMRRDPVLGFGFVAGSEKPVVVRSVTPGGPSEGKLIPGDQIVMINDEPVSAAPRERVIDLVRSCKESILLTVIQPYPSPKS

[5] = molecular target: GRASP, Q7Z6J2
Sequence of GRASP, Q7Z6J2 (Q7Z6J2 96-193): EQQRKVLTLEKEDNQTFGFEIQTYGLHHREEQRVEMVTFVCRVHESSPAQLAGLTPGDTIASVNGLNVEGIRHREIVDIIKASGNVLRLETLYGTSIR

[6] = molecular target: GRID2IP_1, A4D2P6
Sequence of GRID2IP_1, A4D2P6 (A4D2P6 1-87): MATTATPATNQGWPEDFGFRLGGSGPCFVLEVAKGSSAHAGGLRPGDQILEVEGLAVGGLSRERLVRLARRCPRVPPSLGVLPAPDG

[7] = molecular target: T3, GRIP1_5, Q9Y3R0
T3 sequence (Q9Y3R0 568-668, limits assumed, looked up): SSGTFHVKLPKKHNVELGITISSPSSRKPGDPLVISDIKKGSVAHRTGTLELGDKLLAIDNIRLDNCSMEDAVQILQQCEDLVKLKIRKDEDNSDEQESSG

[8] = molecular target: T4, GRIP1_7, Q9Y3R0
T4 sequence (Q9Y3R0 999-1096, limits assumed, looked up): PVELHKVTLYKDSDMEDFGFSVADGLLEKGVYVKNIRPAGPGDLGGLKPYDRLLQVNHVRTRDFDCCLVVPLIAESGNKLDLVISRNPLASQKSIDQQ

[9] = molecular target: GRIP2_3, Q9C0E4
Sequence of GRIP2_3, Q9C0E4 (Q9C0E4 238-339): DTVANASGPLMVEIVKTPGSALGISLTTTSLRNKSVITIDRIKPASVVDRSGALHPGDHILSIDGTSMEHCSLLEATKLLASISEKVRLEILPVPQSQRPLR

[10] = molecular target: GRIP2_6, Q9C0E4
Sequence of GRIP2_6, Q9C0E4 (Q9C0E4 648-740): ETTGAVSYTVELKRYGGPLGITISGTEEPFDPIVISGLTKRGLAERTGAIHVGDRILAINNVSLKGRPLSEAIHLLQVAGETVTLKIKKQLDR

[11] = molecular target: HTRA1, Q92743
Sequence of HTRA1, Q92743 (Q92743 360-477): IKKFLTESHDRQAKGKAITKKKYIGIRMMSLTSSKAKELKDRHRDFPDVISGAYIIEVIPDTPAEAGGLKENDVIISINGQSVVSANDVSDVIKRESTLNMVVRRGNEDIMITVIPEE

[12] = molecular target: Inadl_3, Q8NI35
Sequence of Inadl_3, Q8NI35 (Q8NI35 359-469): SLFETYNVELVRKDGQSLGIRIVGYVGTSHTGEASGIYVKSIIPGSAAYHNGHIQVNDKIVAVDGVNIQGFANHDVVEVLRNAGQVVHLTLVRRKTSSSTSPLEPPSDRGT

[13] = molecular target: Inadl_4, Q8NI35
Sequence of Inadl_4, Q8NI35 (Q8NI35 547-651): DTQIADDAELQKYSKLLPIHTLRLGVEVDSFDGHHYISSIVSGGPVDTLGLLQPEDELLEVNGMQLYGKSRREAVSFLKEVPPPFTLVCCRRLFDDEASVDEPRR

[14] = molecular target: T5, LIN7A, O14910
T5 sequence (O14910 103-200, limits assumed, looked up): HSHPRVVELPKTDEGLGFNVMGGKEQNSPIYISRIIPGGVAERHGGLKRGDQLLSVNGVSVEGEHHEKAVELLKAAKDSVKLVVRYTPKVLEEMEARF

[15] = molecular target: MAGI1_1, Q96QZ7
Sequence of MAGI1_1, Q96QZ7 (Q96QZ7 1-106): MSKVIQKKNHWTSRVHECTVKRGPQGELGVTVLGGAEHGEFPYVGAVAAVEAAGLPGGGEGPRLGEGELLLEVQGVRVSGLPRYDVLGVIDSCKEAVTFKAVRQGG

[16] = molecular target: MAGI1_2, Q96QZ7
Sequence of MAGI1_2, Q96QZ7 (Q96QZ7 456-580): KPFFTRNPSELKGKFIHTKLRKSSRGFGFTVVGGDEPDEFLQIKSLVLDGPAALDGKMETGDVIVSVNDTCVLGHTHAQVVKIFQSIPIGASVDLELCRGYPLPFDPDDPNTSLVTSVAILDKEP

[17] = molecular target: MAGI2_3, Q86UL8
Sequence of MAGI2_3, Q86UL8 (Q86UL8 600-682): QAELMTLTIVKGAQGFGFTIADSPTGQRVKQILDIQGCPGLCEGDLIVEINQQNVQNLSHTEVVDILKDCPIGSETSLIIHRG

[18] = molecular target: MAGI2_5, Q86UL8
Sequence of MAGI2_5, Q86UL8 (Q86UL8 915-1017): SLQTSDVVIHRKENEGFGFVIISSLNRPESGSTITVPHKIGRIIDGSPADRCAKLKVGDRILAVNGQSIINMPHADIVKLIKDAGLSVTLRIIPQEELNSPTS

[19] = molecular target: MAST2, Q6P0Q8
Sequence of MAST2, Q6P0Q8 (Q6P0Q8 1099-1202): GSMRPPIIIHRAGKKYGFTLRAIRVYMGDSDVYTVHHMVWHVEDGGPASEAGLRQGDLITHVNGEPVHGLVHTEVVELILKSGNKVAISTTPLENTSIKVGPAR

[20] = molecular target: T6, MPP6, Q9NZW5
T6 sequence (Q9NZW5 125-219, limits assumed, looked up): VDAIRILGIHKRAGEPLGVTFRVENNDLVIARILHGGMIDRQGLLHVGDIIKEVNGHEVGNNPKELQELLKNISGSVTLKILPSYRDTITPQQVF

[21] = molecular target: T7, MPP7, Q5T2T1
T7 sequence (Q5T2T1 134-230, limits assumed, looked up): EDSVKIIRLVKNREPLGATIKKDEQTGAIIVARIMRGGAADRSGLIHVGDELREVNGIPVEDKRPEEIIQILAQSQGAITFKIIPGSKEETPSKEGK

[22] = molecular target: NHERF4_2, Q86UT5
Sequence of NHERF4_2, Q86UT5 (Q86UT5 220-308): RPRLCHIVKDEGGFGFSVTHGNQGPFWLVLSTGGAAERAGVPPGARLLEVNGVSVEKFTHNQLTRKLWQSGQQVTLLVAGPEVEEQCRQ

[23] = molecular target: T8, PCLO, Q9Y6V0
T8 sequence (Q9Y6V0 4491-4600, limits assumed, looked up): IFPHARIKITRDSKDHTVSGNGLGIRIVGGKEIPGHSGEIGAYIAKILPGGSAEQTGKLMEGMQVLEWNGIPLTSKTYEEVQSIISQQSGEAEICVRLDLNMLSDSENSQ

[24] = molecular target: T9, PDZRN3_1, Q9UPQ7
T9 sequence (Q9UPQ7 244-349, limits assumed, looked up): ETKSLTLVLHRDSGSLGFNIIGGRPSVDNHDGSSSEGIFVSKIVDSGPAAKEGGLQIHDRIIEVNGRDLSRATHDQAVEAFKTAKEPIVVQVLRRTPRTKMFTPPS

[25] = molecular target: T10, PTPN13_1, Q12923
T10 sequence (Q12923 1088-1188, limits assumed, looked up): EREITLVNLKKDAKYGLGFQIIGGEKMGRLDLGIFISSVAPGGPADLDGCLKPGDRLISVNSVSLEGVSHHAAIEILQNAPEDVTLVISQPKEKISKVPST

[26] = molecular target: SCRIB_2, Q14160
Sequence of SCRIB_2, Q14160 (Q14160 857-960): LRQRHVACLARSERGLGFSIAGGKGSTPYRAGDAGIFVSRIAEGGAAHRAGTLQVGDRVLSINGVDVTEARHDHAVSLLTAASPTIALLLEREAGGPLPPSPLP

[27] = molecular target: T11, SYNJ2BP, P57105
T11 sequence (P57105 8-110, limits assumed, looked up): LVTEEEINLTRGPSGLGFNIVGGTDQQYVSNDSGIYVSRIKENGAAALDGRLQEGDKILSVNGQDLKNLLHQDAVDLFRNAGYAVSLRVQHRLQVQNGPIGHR

B2: CLDN1, O95832 (peptide)
chain: PAPSSGKDYV
pKd [1]: below the threshold
pKd [2]: 3.6
pKd [3]: below the threshold
pKd [4]: 3.59
pKd [5]: below the threshold
pKd [6]: below the threshold
pKd [7]: below the threshold
pKd [8]: 3.87
pKd [9]: below the threshold
pKd [10]: below the threshold
pKd [11]: 3.94
pKd [12]: below the threshold
pKd [13]: below the threshold
pKd [14]: below the threshold
pKd [15]: 3.55
pKd [16]: below the threshold
pKd [17]: below the threshold
pKd [18]: below the threshold
pKd [19]: 3.84
pKd [20]: 3.88
pKd [21]: below the threshold
pKd [22]: below the threshold
pKd [23]: below the threshold
pKd [24]: below the threshold
pKd [25]: below the threshold
pKd [26]: below the threshold
pKd [27]: below the threshold

B5: NLGN2, Q8NFZ4 (peptide)
chain: LPHPHSTTRV
pKd [1]: 3.71
pKd [2]: below the threshold
pKd [3]: below the threshold
pKd [4]: below the threshold
pKd [5]: 4.18
pKd [6]: below the threshold
pKd [7]: below the threshold
pKd [8]: below the threshold
pKd [9]: 3.52
pKd [10]: below the threshold
pKd [11]: 3.6
pKd [12]: below the threshold
pKd [13]: below the threshold
pKd [14]: below the threshold
pKd [15]: below the threshold
pKd [16]: 4.13
pKd [17]: 4.24
pKd [18]: below the threshold
pKd [19]: 5.19
pKd [20]: below the threshold
pKd [21]: below the threshold
pKd [22]: below the threshold
pKd [23]: below the threshold
pKd [24]: below the threshold
pKd [25]: below the threshold
pKd [26]: below the threshold
pKd [27]: 3.84

Second part, the binder after the results:

pKd [1]: 3.93
pKd [2]: below the threshold
pKd [3]: below the threshold
pKd [4]: 3.83
pKd [5]: 4.73
pKd [6]: below the threshold
pKd [7]: below the threshold
pKd [8]: below the threshold
pKd [9]: below the threshold
pKd [10]: below the threshold
pKd [11]: 4.77
pKd [12]: 3.64
pKd [13]: below the threshold
pKd [14]: below the threshold
pKd [15]: below the threshold
pKd [16]: below the threshold
pKd [17]: below the threshold
pKd [18]: 4.13
pKd [19]: 5.53
pKd [20]: below the threshold
pKd [21]: below the threshold
pKd [22]: below the threshold
pKd [23]: below the threshold
pKd [24]: 3.84
pKd [25]: below the threshold
pKd [26]: below the threshold
pKd [27]: below the threshold
B1: PRKD2, Q9BZL6 (peptide)
chain: QGLAERISVL

pKd [1]: below the threshold
pKd [2]: below the threshold
pKd [3]: below the threshold
pKd [4]: below the threshold
pKd [5]: below the threshold
pKd [6]: below the threshold
pKd [7]: below the threshold
pKd [8]: below the threshold
pKd [9]: below the threshold
pKd [10]: below the threshold
pKd [11]: below the threshold
pKd [12]: below the threshold
pKd [13]: below the threshold
pKd [14]: below the threshold
pKd [15]: below the threshold
pKd [16]: below the threshold
pKd [17]: below the threshold
pKd [18]: below the threshold
pKd [19]: below the threshold
pKd [20]: below the threshold
pKd [21]: below the threshold
pKd [22]: below the threshold
pKd [23]: below the threshold
pKd [24]: below the threshold
pKd [25]: below the threshold
pKd [26]: below the threshold
pKd [27]: below the threshold
B3: TRMT13, Q9NUP7 (peptide)
chain: NHSSSPETTA

pKd [1]: 4.15
pKd [2]: 4.36
pKd [3]: below the threshold
pKd [4]: 3.74
pKd [5]: 3.9
pKd [6]: 3.7
pKd [7]: below the threshold
pKd [8]: 3.48
pKd [9]: below the threshold
pKd [10]: below the threshold
pKd [11]: 4.16
pKd [12]: 3.72
pKd [13]: 3.49
pKd [14]: 4.15
pKd [15]: 3.63
pKd [16]: 3.63
pKd [17]: 4.06
pKd [18]: 3.82
pKd [19]: 5.5
pKd [20]: below the threshold
pKd [21]: 3.57
pKd [22]: below the threshold
pKd [23]: below the threshold
pKd [24]: 4.91
pKd [25]: 3.58
pKd [26]: 4.94
pKd [27]: 5.2
B4: TRPV3, Q8NET8 (peptide)
chain: EVEEFPETSV

— PMC9482650, “Quantitative fragmentomics allow affinity mapping of interactomes” (Nature Communications, 2022)
